B1: ZNF263 (parent)
chain: HLTRHQRTHTGEKPYKCTLCGENF
B2: SMAD6 (parent)
chain: SGLVRRLWRSRVVPDREEGGSGGG

Variants of: B1
Experiment: protein stability index of a GFP-peptide fusion (GPS, HEK-293T) (PSI 1-6); higher = more stable
Settings: c terminus: a fixed tail appended
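Further: lentivirally expressed fusions sorted by FACS into six bins by GFP to DsRed ratio, PSI derived from sequencing read proportions per bin multiplied by bin number.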

Protein stability index, by site and new letter:
K16: L 2.33 | N 2.82 | H 2.91 | P 3.32 | D 3.74 | Y 2.52 | C 2.83 | A 3.72 | S 3.19 | Q 3.17 | I 2.97 | G 3.19 | W 2.78 | E 3.82 | V 2.3 | R 2.87 | T 2.9 | F 2.7 | M 3.17
C20: I 2.57 | P 2.53 | F 2.25 | G 2.92 | W 2.56 | M 2.93 | E 4.11 | A 2.89 | V 3.07 | Q 3.44 | D 3.69 | S 3.23 | K 3.12 | R 3.03 | H 2.66 | L 2.61 | Y 2.77 | T 3.93 | N 3.25
Y15: Q 3.44 | W 2.46 | M 3.18 | L 2.81 | I 2.85 | R 2.93 | S 3.48 | P 3.1 | K 3.11 | T 3 | V 3.22 | H 3.24 | N 3.29
F24: K 3.12 | M 3.58 | V 3.47 | P 3.14 | N 3.7 | W 3.08 | A 4.22 | S 4.49 | Y 2.9 | G 3.67 | H 3.46 | D 4.62 | E 4.08 | Q 2.88 | R 3.13 | T 3.85 | L 3.44 | I 3.02 | C 4.06
C17: Y 3.05 | F 2.44 | P 3.37 | A 3.24 | L 2.68 | S 3.4 | D 3.73 | E 3.96 | R 2.98 | H 2.89 | G 3.52 | I 2.21 | M 2.81 | T 3.06 | V 3.7 | K 3.71 | Q 3.46 | N 3.1
G21: Q 2.85 | Y 2.97 | K 3.42 | W 2.23 | L 2.58 | S 2.99 | I 2.41 | F 2.43 | T 2.7 | A 3.27 | N 3.02 | V 2.26 | R 2.46 | C 2.73 | E 3.58 | H 3.46 | D 3.26 | P 2.68 | M 3.06
L19: E 3.36 | D 3.84 | N 3.68 | G 2.56 | Q 2.98 | A 3.23 | T 3.64 | S 3.14 | R 3.03 | V 2.86 | Y 2.39 | M 2.83 | K 3.7 | C 3.88 | I 3.15 | W 2.75 | F 2.62 | P 2.7 | H 2.94
E22: G 2.31 | P 2.95 | C 2.29 | R 2.29 | T 2.58 | Q 2.38 | I 2.75 | F 1.95 | W 2.13 | A 2.54 | N 2.69 | H 3.43 | L 2.08 | V 2.17 | D 3.33 | K 2.36 | S 2.9 | M 2.31 | Y 2.39
N23: P 2.54 | A 2.68 | R 3.08 | E 2.75 | V 1.85 | D 3.33 | I 2.57 | K 3.22 | Q 2.63 | C 3.13 | L 2.34 | S 2.7 | H 1.98 | T 2.83 | G 4.03 | Y 2.53 | F 2.33 | M 2.3 | W 2.57
T18: D 2.75 | N 2.81 | P 2.4 | C 2.54 | G 2.45 | I 2.36 | M 2.42 | W 2.54 | S 2.84 | H 2.65 | F 2.56 | R 2.68 | Q 2.68 | A 2.94 | V 2.42 | E 3.78 | L 2.49 | Y 3.09 | K 2.98

Variants of: B2
Experiment: as above
Settings: c terminus: a fixed tail appended

Protein stability index of substitutions, site by site:
L3: Q 3.88 | N 4.73 | T 3.54 | W 4.17 | M 4.06 | S 4.38
S10: F 2.4 | A 3.76 | W 2.6 | H 2.24 | N 3.89
V4: G 3.41 | E 4.63 | K 4.45
W8: S 5.1 | N 5.26 | L 4.22 | K 4.64 | Q 5
V13: D 4.88 | L 3.99 | F 3.32 | K 4.13 | W 3.37
G20: W 1.99 | A 4 | I 3.06 | L 2.74 | V 2.44 | F 2.82 | Q 3.96 | N 3.11 | R 4.04 | C 3.04
R16: L 3.34 | E 4.32 | Q 3.67 | W 3.25 | I 3.76 | M 3.4 | S 4.7 | N 4.37
S1: Q 5.24 | H 3.81 | C 2.09 | M 2.45 | W 2.61 | I 2.92
G2: L 3.51 | D 2.93 | F 2.93 | H 4.14 | S 4.17 | K 3.6 | V 3.03 | W 2.29 | P 4.79 | A 2.15 | N 4.17 | E 2.35 | M 3.19
V12: F 3.69 | P 3.67 | C 2.94 | D 4.76 | M 4.06 | N 4.22 | I 4.07 | Y 3.1
E18: I 4.17 | P 3.46 | V 3.85 | D 3.82 | F 2.68 | N 2.42 | C 2.94 | Y 2.44 | A 2.9
R6: C 3.46 | A 3.27 | M 2.93 | S 3.29 | H 4
L7: E 3.82 | I 4.14 | Y 3.82 | Q 4.4 | S 4 | H 3.55
R11: W 2.22 | I 2.63 | G 4.98 | K 4.15 | T 4.68
R5: I 2.4 | C 2.46 | A 3.76 | S 3.27 | H 4.21 | L 1.97 | Q 3.72 | M 3.3
G22: C 3.04 | R 4.48 | I 3.87 | A 3.84 | E 4.04 | F 2.98
R9: H 3.69 | P 4.85 | N 3.96 | T 2.82 | G 3.27
E17: Y 1.19 | D 4.12 | A 3.47 | T 3.31 | C 4.26 | S 4.07 | K 4.14 | R 2.93 | G 3.86 | V 3.71
G23: H 3.7 | F 3.13 | E 3.9 | D 5.01 | M 3.25
D15: P 3.62 | H 3.55 | N 3.96 | M 3.01 | I 2.75 | E 4.31 | T 4.33 | K 3.35
G19: A 4.28 | M 3.35 | K 4.06 | P 4.07 | W 2.79
S21: Y 3.09 | V 3.37 | W 2.9 | D 4.54 | E 3.53
P14: L 3.18 | N 3.77 | K 4.3 | Y 3.02 | D 2.83
